Where two headings read alike, the source gives them in different places.

Assay in all cases: EMSA
The target in series [1] is T1, GST-SUV39H1 (UniProt O43463 1-412).
T1 sequence: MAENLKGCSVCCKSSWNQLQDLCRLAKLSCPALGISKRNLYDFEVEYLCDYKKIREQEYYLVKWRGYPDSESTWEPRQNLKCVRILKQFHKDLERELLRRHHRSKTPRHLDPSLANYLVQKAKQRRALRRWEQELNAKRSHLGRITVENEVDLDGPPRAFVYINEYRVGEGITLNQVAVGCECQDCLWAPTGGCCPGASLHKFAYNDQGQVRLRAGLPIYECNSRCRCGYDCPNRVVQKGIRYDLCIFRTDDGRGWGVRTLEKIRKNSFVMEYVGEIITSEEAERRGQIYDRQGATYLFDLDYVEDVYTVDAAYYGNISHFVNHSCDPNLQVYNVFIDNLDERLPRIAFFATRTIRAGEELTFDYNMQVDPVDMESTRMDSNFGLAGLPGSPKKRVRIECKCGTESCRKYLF

Series [2] concerns the target T1, GST-SUV39H1. The source holds these as a separate data set.
Series [3] addresses T1, GST-SUV39H1. This is another data set of the same source.

B1: (UUAGGG)10 TERRA RNA (ssRNA)
RNA: UUAGGGUUAGGGUUAGGGUUAGGGUUAGGGUUAGGGUUAGGGUUAGGGUUAGGGUUAGGG
For B1, the binding result with GST-SUV39H1 [1] is “binds”.

B2: (TTAGGG)10 DNA (ssDNA)
DNA: TTAGGGTTAGGGTTAGGGTTAGGGTTAGGGTTAGGGTTAGGGTTAGGGTTAGGGTTAGGG
Turning to B2, the binding result with GST-SUV39H1 [2] is “no binding”.
In the case of UUAGGGUUAGGGUUAGGGUUAGGGUUAGGGUUAGGGUUAGGG (ssRNA) [(UUAGGG)7 TERRA RNA], the binding result with GST-SUV39H1 [3] is reported as “binds”.

For the origin of these results see publication PMC4264578.
